T1: SolCorin-EK (soluble modified human corin, zymogen)
T1 sequence: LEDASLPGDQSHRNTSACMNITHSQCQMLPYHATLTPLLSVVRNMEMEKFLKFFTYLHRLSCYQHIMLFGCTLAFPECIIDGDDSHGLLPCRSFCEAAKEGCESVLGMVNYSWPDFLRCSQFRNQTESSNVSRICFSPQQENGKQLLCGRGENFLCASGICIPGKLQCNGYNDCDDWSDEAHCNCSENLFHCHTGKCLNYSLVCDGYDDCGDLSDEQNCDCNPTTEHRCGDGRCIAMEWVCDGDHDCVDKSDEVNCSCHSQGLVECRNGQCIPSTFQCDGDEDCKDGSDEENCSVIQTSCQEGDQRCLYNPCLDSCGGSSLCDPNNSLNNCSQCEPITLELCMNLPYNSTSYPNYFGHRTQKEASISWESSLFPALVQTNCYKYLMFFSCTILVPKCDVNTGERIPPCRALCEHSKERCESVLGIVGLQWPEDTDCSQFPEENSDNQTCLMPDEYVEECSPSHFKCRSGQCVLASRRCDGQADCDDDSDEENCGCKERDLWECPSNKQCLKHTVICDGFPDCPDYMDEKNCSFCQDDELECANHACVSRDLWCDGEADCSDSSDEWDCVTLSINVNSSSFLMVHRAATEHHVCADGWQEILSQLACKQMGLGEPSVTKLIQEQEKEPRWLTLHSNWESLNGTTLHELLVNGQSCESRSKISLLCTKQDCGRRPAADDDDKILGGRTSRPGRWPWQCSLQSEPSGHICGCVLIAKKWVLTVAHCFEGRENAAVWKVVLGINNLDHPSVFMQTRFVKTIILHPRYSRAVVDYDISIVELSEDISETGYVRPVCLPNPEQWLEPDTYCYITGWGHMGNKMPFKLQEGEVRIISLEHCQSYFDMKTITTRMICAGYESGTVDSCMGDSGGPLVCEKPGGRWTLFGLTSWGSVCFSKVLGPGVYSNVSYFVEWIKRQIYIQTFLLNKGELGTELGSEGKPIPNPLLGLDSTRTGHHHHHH

T2: SolCorinPD-EK (soluble modified human corin protease domain, zymogen)
T2 sequence: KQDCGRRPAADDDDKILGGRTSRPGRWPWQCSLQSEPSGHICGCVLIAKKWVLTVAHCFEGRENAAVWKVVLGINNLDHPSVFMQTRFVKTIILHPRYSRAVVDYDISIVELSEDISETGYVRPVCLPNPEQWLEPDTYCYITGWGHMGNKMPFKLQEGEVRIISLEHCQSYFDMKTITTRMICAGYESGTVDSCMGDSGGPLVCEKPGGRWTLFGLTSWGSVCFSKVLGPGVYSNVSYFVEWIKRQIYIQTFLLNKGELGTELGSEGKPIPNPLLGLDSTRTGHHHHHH

T3: recombinant human wild-type pro-ANP with C-terminal V5 and 6xHis tags, P01160
T3 chain: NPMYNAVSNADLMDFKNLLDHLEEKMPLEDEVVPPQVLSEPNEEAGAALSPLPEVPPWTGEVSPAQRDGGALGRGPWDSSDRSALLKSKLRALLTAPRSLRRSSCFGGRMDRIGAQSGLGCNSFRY

B1: enterokinase-activated SolCorin-EK (protein)
chain 1: LEDASLPGDQSHRNTSACMNITHSQCQMLPYHATLTPLLSVVRNMEMEKFLKFFTYLHRLSCYQHIMLFGCTLAFPECIIDGDDSHGLLPCRSFCEAAKEGCESVLGMVNYSWPDFLRCSQFRNQTESSNVSRICFSPQQENGKQLLCGRGENFLCASGICIPGKLQCNGYNDCDDWSDEAHCNCSENLFHCHTGKCLNYSLVCDGYDDCGDLSDEQNCDCNPTTEHRCGDGRCIAMEWVCDGDHDCVDKSDEVNCSCHSQGLVECRNGQCIPSTFQCDGDEDCKDGSDEENCSVIQTSCQEGDQRCLYNPCLDSCGGSSLCDPNNSLNNCSQCEPITLELCMNLPYNSTSYPNYFGHRTQKEASISWESSLFPALVQTNCYKYLMFFSCTILVPKCDVNTGERIPPCRALCEHSKERCESVLGIVGLQWPEDTDCSQFPEENSDNQTCLMPDEYVEECSPSHFKCRSGQCVLASRRCDGQADCDDDSDEENCGCKERDLWECPSNKQCLKHTVICDGFPDCPDYMDEKNCSFCQDDELECANHACVSRDLWCDGEADCSDSSDEWDCVTLSINVNSSSFLMVHRAATEHHVCADGWQEILSQLACKQMGLGEPSVTKLIQEQEKEPRWLTLHSNWESLNGTTLHELLVNGQSCESRSKISLLCTKQDCGRRPAADDDDK
chain 2: ILGGRTSRPGRWPWQCSLQSEPSGHICGCVLIAKKWVLTVAHCFEGRENAAVWKVVLGINNLDHPSVFMQTRFVKTIILHPRYSRAVVDYDISIVELSEDISETGYVRPVCLPNPEQWLEPDTYCYITGWGHMGNKMPFKLQEGEVRIISLEHCQSYFDMKTITTRMICAGYESGTVDSCMGDSGGPLVCEKPGGRWTLFGLTSWGSVCFSKVLGPGVYSNVSYFVEWIKRQIYIQTFLLNKGELGTELGSEGKPIPNPLLGLDSTRTGHHHHHH
B2: enterokinase-activated SolCorinPD-EK (protein)
chain 1: KQDCGRRPAADDDDK
chain 2: B1 chain 2

Tests used:
[1] = tested on: T1, SolCorin-EK (soluble modified human corin, zymogen)
[2] = tested on: T2, SolCorinPD-EK (soluble modified human corin protease domain, zymogen)
[3] = target: T3, recombinant human wild-type pro-ANP …

Row | Molecule | cleavage of soluble corin by 0, 2, 10, 20 or 40 units enterokinase, 25 C, 4 hrs (anti-V5 Western blot) [1] | cleavage of soluble corin by 0, 2, 10, 20 or 40 units enterokinase, 25 C, 4 hrs (anti-V5 Western blot) [2] | processing of pro-ANP to ANP in mixed conditioned media, 4 C, 3 hours (anti-V5 immunoprecipitation and Western blot) [3]
1 | purified enterokinase (Calbiochem) | both the long form (SolCorin-EK) and short form (SolCorinPD-EK) of soluble modified human corin were cleaved by exposure to enterokinase in a dose-dependent manner | both the long form (SolCorin-EK) and short form (SolCorinPD-EK) of soluble modified human corin were cleaved by exposure to enterokinase in a dose-dependent manner | –
2 | B1 | – | – | pro-ANP was processed to ANP by the long form (SolCorin-EK), but not the short form (SolCorin-PD-EK), of soluble modified human corin upon activation by enterokinase in vitro
3 | B2 | – | – | pro-ANP was processed to ANP by the long form (SolCorin-EK), but not the short form (SolCorin-PD-EK), of soluble modified human corin upon activation by enterokinase in vitro

From patent publication US20050003416
